Reference: the supplement of paper PMC7125110
± gives the standard error. Variants at the floor of the assay were thinned out.

B1: glmS ribozyme (parent)
chain: AUAAAAGCGCCAGAACUACAGAAAUGUAGUUGACGAGGAGGAGGUUUAUCGAAUUUUCGGCGGAUGCCUCCAAA

Variants of: B1
Assay: self-cleavage kobs at 10000 uM GlcN6P; higher = faster cleavage; RNA array
Details: with glucosamine-6-phosphate
Summary of the method: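 Glucosamine-6-phosphate (40 μM to 10 mM) in HEPES/KCl/Mg(OAc)2 buffer was flowed over sequenced MiSeq chips, and tiles were imaged over ~14 h. Barcoded ribozyme variants there had been transcribed in situ by E. coli RNA polymerase and were tracked through a hybridised Cy3 probe at 37 °C. One- or two-exponential decay fits to per-tile medians, normalised to baseline and to non-cleaving reference variants, gave kobs. kcat and KM came from weighted Michaelis–Menten fits across concentrations.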

C50U G59C A64G C71U and G35C G38U G43A G51C G60C cannot be ordered by “self-cleavage kobs at 10000 uM GlcN6P” value: less than 1e-05 s⁻¹ for the first, less than 1e-05 s⁻¹ for the second.

Compared with U56A U69C C71G, A33C G35A U46G C50U U56G C71A is lower in “self-cleavage kobs at 10000 uM GlcN6P” value: 8.19e-05 ± 2e-05 s⁻¹ for the first, less than 1e-05 s⁻¹ for the second.

First: U30G U47C C68U
Second: A39U A52U U56G
The “self-cleavage kobs at 10000 uM GlcN6P” value of the first is 2-fold higher: 0.000171 ± 3.3e-05 s⁻¹ for the first, 8.75e-05 ± 1.8e-05 s⁻¹ for the second.

G29U G40A A52C C67A and G40C G51C U57A cannot be ordered by “self-cleavage kobs at 10000 uM GlcN6P” value: less than 1e-05 s⁻¹ for the first, less than 1e-05 s⁻¹ for the second.

Going from G32U G40U C70U to G32C G38C G60U C67G, the “self-cleavage kobs at 10000 uM GlcN6P” value falls from 5.9e-05 ± 1.3e-05 s⁻¹ to less than 1e-05 s⁻¹.

Going from A48U U54C C68U to A33C G38U C68U, the “self-cleavage kobs at 10000 uM GlcN6P” value falls from 9.01e-05 ± 2.8e-05 s⁻¹ to less than 1e-05 s⁻¹.

First: A36U G43C U54C U55C G63C C71A
Second: A39G U45C C67A
The “self-cleavage kobs at 10000 uM GlcN6P” value of the first is lower: less than 1e-05 s⁻¹ for the first, 0.00692 ± 0.0024 s⁻¹ for the second.

G29U G38A A42G U47G C71U and A33U G41U U49A A52U U69A cannot be ordered by “self-cleavage kobs at 10000 uM GlcN6P” value: less than 1e-05 s⁻¹ for the first, less than 1e-05 s⁻¹ for the second.

First: G29U U55A U69A
Second: C50U A64C C71A
The “self-cleavage kobs at 10000 uM GlcN6P” value of the first is higher: 4.12e-05 ± 1.6e-05 s⁻¹ for the first, less than 1e-05 s⁻¹ for the second.

Compared with G32A U55G U65G G66U C70G, A39C U47C C70U is 11-fold higher in “self-cleavage kobs at 10000 uM GlcN6P” value: 3.69e-05 ± 1.7e-05 s⁻¹ for the first, 0.000412 ± 0.0001 s⁻¹ for the second.

Compared with C50G U54G U65G, G41C U56C is higher in “self-cleavage kobs at 10000 uM GlcN6P” value: less than 1e-05 s⁻¹ for the first, 3.26e-05 ± 8.9e-06 s⁻¹ for the second.

First: U31G G43C U45G
Second: G41C U57G
The “self-cleavage kobs at 10000 uM GlcN6P” value of the first is higher: 0.000273 ± 8.2e-05 s⁻¹ for the first, less than 1e-05 s⁻¹ for the second.

First: U31C G32A U47G C67A
Second: U46G U55G G66U
The “self-cleavage kobs at 10000 uM GlcN6P” value of the first is 6.7-fold lower: 6.62e-05 ± 1.4e-05 s⁻¹ for the first, 0.000444 ± 0.00018 s⁻¹ for the second.

First: G32C A36U U69G C70A
Second: A48C C71G
The “self-cleavage kobs at 10000 uM GlcN6P” value of the first is 3.7-fold higher: 0.000103 ± 2.4e-05 s⁻¹ for the first, 2.78e-05 ± 8.9e-06 s⁻¹ for the second.

G37C A48G G62U and U31C G35A G40C C58U G60A cannot be ordered by “self-cleavage kobs at 10000 uM GlcN6P” value: less than 1e-05 s⁻¹ for the first, less than 1e-05 s⁻¹ for the second.

Compared with G29C U46A, C34G A64C C67A is lower in “self-cleavage kobs at 10000 uM GlcN6P” value: 7.43e-05 ± 1.7e-05 s⁻¹ for the first, less than 1e-05 s⁻¹ for the second.

A42U A52G U57A G63C and G29C U49A C50A cannot be ordered by “self-cleavage kobs at 10000 uM GlcN6P” value: less than 1e-05 s⁻¹ for the first, less than 1e-05 s⁻¹ for the second.

First: G29C G32C A39G
Second: G37C U54A
The “self-cleavage kobs at 10000 uM GlcN6P” value of the first is 1.7-fold higher: 7.25e-05 ± 1.8e-05 s⁻¹ for the first, 4.2e-05 ± 1e-05 s⁻¹ for the second.

A33U G62U C71A and G37C G59U C61G cannot be ordered by “self-cleavage kobs at 10000 uM GlcN6P” value: less than 1e-05 s⁻¹ for the first, less than 1e-05 s⁻¹ for the second.

U31C C50G G63A and A33U G40A are within error of each other in “self-cleavage kobs at 10000 uM GlcN6P” value: 3.51e-05 ± 1.5e-05 s⁻¹ for the first, 4.3e-05 ± 5.8e-06 s⁻¹ for the second.

Going from A48G C58A to G38U G40U G41C U47C G59C C68G, the “self-cleavage kobs at 10000 uM GlcN6P” value falls from 4.59e-05 ± 1.1e-05 s⁻¹ to less than 1e-05 s⁻¹.

U31A A36U U47G C70G and U31G G44C are within error of each other in “self-cleavage kobs at 10000 uM GlcN6P” value: 5.95e-05 ± 1.5e-05 s⁻¹ for the first, 4.96e-05 ± 1.3e-05 s⁻¹ for the second.

A36G G40U C68A and G51C U55C cannot be ordered by “self-cleavage kobs at 10000 uM GlcN6P” value: less than 1e-05 s⁻¹ for the first, less than 1e-05 s⁻¹ for the second.

Going from A42U A64C C67U to A42G U55A C68G, the “self-cleavage kobs at 10000 uM GlcN6P” value rises from less than 1e-05 s⁻¹ to 7.44e-05 ± 2e-05 s⁻¹.

First: G43C C68U C70G C71U
Second: G41A U56C
The “self-cleavage kobs at 10000 uM GlcN6P” value of the first is lower: less than 1e-05 s⁻¹ for the first, 3.52e-05 ± 1.7e-05 s⁻¹ for the second.

A39U A48G G60A and U46G G62A C71A cannot be ordered by “self-cleavage kobs at 10000 uM GlcN6P” value: less than 1e-05 s⁻¹ for the first, less than 1e-05 s⁻¹ for the second.

Compared with A39G G60A, C50G A53U C71G is 6.4-fold higher in “self-cleavage kobs at 10000 uM GlcN6P” value: 2.33e-05 ± 1.2e-05 s⁻¹ for the first, 0.000148 ± 4e-05 s⁻¹ for the second.

First: A36U U49A
Second: G32U G43U A53G G63U A64G G66U
The “self-cleavage kobs at 10000 uM GlcN6P” value of the first is higher: 8.19e-05 ± 9.1e-06 s⁻¹ for the first, less than 1e-05 s⁻¹ for the second.

Compared with C34U U45A C61U, U55A A64U C71A is higher in “self-cleavage kobs at 10000 uM GlcN6P” value: less than 1e-05 s⁻¹ for the first, 4.3e-05 ± 1.9e-05 s⁻¹ for the second.

Going from G32A A52G C70A to G40A G44U U47G G60U C61U C68U, the “self-cleavage kobs at 10000 uM GlcN6P” value falls from 5.69e-05 ± 2.3e-05 s⁻¹ to less than 1e-05 s⁻¹.
